Test system: T1, DNASE1-LIKE 3, Isoform 1 (wild-type human D1L3), purified
T1 sequence: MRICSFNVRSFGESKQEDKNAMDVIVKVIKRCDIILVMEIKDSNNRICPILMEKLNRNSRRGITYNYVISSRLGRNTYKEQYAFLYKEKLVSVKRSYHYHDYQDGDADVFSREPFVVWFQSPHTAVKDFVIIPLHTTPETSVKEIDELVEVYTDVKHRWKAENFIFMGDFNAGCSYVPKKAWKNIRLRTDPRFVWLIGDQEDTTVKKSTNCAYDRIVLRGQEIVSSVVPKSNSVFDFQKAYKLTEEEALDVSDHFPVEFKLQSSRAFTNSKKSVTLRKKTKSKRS

Substance | proteolytic cleavage sites (digestion, fragments sequenced by LC and MS)
plasmin (purified) | plasmin cleaved D1L3 at the following arginine and lysine residues: R22, R29, K45, K47, K74, R81, R92, K107, K176, R212, R226, R227, K250, K259, and K262
trypsin | trypsin cleaved D1L3 at the following arginine and lysine residues: R22, R29, R51, R66, R80, R81, R95, K99, R115, K147, K163, K180, R208, R212, R235, R239, K250, and K262

— patent publication US20260152732
